Reference: article PMC3281933

Molecular target: low density lipoprotein receptor-related protein 1 (LRP1) (human (endogenous in 1064Sk human skin fibroblasts))

- CCN1/TNFα-induced apoptosis of human skin fibroblasts (CCN1 2 µg/ml, TNFα 10 ng/ml, 5 hrs) after pre-incubation with 1 µM recombinant RAP: 60%
B1: CCN1 (CYR61) (natural protein)
chain: TCPAACHCPLEAPKCAPGVGLVRDGCGCCKVCAKQLNEDCSKTQPCDHTKGLECNFGASSTALKGICRAQSEGRPCEYNSRIYQNGESFQPNCKHQCTCIDGAVGCIPLCPQELSLPNLGCPNPRLVKVTGQCCEEWVCDEDSIKDPMEDQDGLLGKELGFDASEVELTRNNELIAVGKGSSLKRLPVFGMEPRILYNPLQGQKCIVQTTSWSQCSKTCGTGISTRVTNDNPECRLVKETRICEVRPCGQPVYSSLKKGKKCSKTKKSPEPVRFTYAGCLSVKKYRPKYCGSCVDGRCCTPQLTRTVKMRFRCEDGETFSKNVMMIQSCKCNYNCPHANEAAFPFYRLFNDIHKFRD
